Measured values from patent US20190300618A1 (Merck Sharp & Dohme, published 2019).

Tests used:
[1] = molecular target: human CD27 (wild type), expressed on cells (human) (UniProt P26842); assay: cell ELISA on transfected CHO cells
R93A = assay: flow cytometry, CHO-K1; sub-column 1 of 2
G89A = assay: flow cytometry, CHO-K1; sub-column 1 of 2
H36A = assay: flow cytometry, CHO-K1; sub-column 1 of 2
V49A = assay: flow cytometry, CHO-K1; sub-column 1 of 2
N88A = assay: flow cytometry, CHO-K1; sub-column 1 of 2
F28A = assay: flow cytometry, CHO-K1; sub-column 1 of 2
V30A = assay: flow cytometry, CHO-K1; sub-column 1 of 2
W13A = assay: flow cytometry, CHO-K1; sub-column 1 of 2
H60A = assay: flow cytometry, CHO-K1; sub-column 1 of 2
R87A = assay: flow cytometry, CHO-K1; sub-column 1 of 2
R10A = assay: flow cytometry, CHO-K1; sub-column 1 of 2
E9A = assay: flow cytometry, CHO-K1; sub-column 1 of 2
I46A = assay: flow cytometry, CHO-K1; sub-column 1 of 2
P44A = assay: flow cytometry, CHO-K1; sub-column 1 of 2
G16A = assay: flow cytometry, CHO-K1; sub-column 1 of 2
W90A = assay: flow cytometry, CHO-K1; sub-column 1 of 2

fold higher EC50 compared to 131AVH6VL6-hIgG1 [1]: 4 fold
% of WT hCD27 binding (geo mean FITC) (R93A): 120%
% of WT hCD27 binding (geo mean FITC) (G89A): 103%
% of WT hCD27 binding (geo mean FITC) (H36A): 116%
% of WT hCD27 binding (geo mean FITC) (V49A): 143%
% of WT hCD27 binding (geo mean FITC) (N88A): 153%
% of WT hCD27 binding (geo mean FITC) (F28A): 113%
% of WT hCD27 binding (geo mean FITC) (V30A): 171%
% of WT hCD27 binding (geo mean FITC) (W13A): 89.5%
% of WT hCD27 binding (geo mean FITC) (H60A): 176%
% of WT hCD27 binding (geo mean FITC) (R87A): 40.8%
% of WT hCD27 binding (geo mean FITC) (R10A): 105%
% of WT hCD27 binding (geo mean FITC) (E9A): 95.4%
% of WT hCD27 binding (geo mean FITC) (I46A): 128%
% of WT hCD27 binding (geo mean FITC) (P44A): 150%
% of WT hCD27 binding (geo mean FITC) (G16A): 96%
% of WT hCD27 binding (geo mean FITC) (W90A): 42.5%
Substance: 1F5 hIgG1 (antibody)
